Source: US20260209386A1 (MYTHIC THERAPEUTICS, published 2026)

T1: Recombinant human CCK4/PTK7 Protein (His Tag), Sino Biological 19399-H08H (human, UniProt Q13308 31-704)
T1 construct: bought protein; not shown: His tag
T1 sequence: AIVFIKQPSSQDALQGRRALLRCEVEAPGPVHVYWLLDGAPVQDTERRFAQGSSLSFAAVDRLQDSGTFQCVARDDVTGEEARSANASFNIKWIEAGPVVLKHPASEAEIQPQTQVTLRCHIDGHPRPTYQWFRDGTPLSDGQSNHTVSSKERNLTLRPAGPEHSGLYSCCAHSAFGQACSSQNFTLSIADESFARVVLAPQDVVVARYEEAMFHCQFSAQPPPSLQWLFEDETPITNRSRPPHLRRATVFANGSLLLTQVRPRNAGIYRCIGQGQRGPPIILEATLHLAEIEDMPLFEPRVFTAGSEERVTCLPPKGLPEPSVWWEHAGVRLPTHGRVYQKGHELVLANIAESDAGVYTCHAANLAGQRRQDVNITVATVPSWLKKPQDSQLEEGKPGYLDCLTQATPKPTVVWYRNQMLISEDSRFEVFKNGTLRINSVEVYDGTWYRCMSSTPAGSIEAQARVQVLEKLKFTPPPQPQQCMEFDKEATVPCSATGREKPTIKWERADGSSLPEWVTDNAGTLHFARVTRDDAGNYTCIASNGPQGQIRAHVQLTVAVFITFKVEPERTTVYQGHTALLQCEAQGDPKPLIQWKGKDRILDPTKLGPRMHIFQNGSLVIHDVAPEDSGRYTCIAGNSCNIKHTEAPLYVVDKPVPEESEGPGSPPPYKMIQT


Target: T1, Recombinant human CCK4/PTK7 Protein …
Test: BLI, antibody on anti-human Fc sensor

Row | binding result | Binder
1 | no binding (tested: 50 nM PTK7) | MYT8003 (antibody, V domains shown, IgG) VH: EVQLVQSGGGLVHPGGSLRLSCAGSGFTFSTYLMYWVRQAPGKTLEWVSAIGSGGDTYYADSVKGRFTISRDNAKNSLYLQMNSLRAEDMAVYYCARGLGYWGQGTLVTVSS VL: not shown
2 | no binding (tested: 50 nM PTK7) | MYT7989 (antibody, V domains shown, IgG) VH: EVQLVQSGGGLVHPGGSLRLSCAGSGFTFSTYLMYWVRQAPGKTLEWVSAIGSGGDTYYADSVKGRFTISRDNAKNSLYLQMNSLRAEDMAVYYCARGHGYWGQGTLVTVSS VL: not shown
3 | no binding (tested: 50 nM PTK7) | MYT7987 (antibody, V domains shown, IgG) VH: EVQLVQSGGGLVHPGGSLRLSCAGSGFTFSTYLMYWVRQAPGKTLEWVSAIGSGGDTYYADSVKGRFTISRDNAKNSLYLQMNSLRAEDMAVYYCAHGLGYWGQGTLVTVSS VL: not shown
4 | no binding (tested: 50 nM PTK7) | MYT8016 (antibody, V domains shown, IgG) VH: EVQLVQSGGGLVHPGGSLRLSCAGSGFTFSTYLMYWVRQAPGKTLEWVSAIGSGGDTYYADSVKGRFTISRDNAKNSLYLQMNSLRAEDMAVYYCARGLGYWGQGTLVTVSS VL: not shown
5 | no binding (tested: 50 nM PTK7) | MYT8017 (antibody, V domains shown, IgG) VH: EVQLVQSGGGLVHPGGSLRLSCAGSGFTFSTYLMYWVRQAPGKTLEWVSAIGSGGDTYYADSVKGRFTISRDNAKNSLYLQMNSLRAEDMAVYYCARGLGYWGQGTLVTVSS VL: not shown
6 | no binding (tested: 50 nM PTK7) | MYT7988 (antibody, V domains shown, IgG) VH: EVQLVQSGGGLVHPGGSLRLSCAGSGFTFSTYLMYWVRQAPGKTLEWVSAIGSGGDTYYADSVKGRFTISRDNAKNSLYLQMNSLRAEDMAVYYCARHLGYWGQGTLVTVSS VL: not shown
7 | no binding (tested: 50 nM PTK7) | MYT7972 (antibody, V domains shown, IgG) VH: EVQLVQSGGGLVHPGGSLRLSCAGSGFTFSTYLMYWVRQAPGKTLEWVSAIHSGGDTYYADSVKGRFTISRDNAKNSLYLQMNSLRAEDMAVYYCARGLGYWGQGTLVTVSS VL: not shown

The remaining lines, values behind:

Row | Binder | binding result
8 | MYT7986 (antibody, V domains shown, IgG) VH: EVQLVQSGGGLVHPGGSLRLSCAGSGFTFSTYLMYWVRQAPGKTLEWVSAIGSGGDTYYADSVKGRFTISRDNAKNSLYLQMNSLRAEDMAVYYCHRGLGYWGQGTLVTVSS VL: not shown | no binding (tested: 50 nM PTK7)
9 | MYT8019 (antibody, V domains shown, IgG) VH: EVQLVQSGGGLVHPGGSLRLSCAGSGFTFSTYLMYWVRQAPGKTLEWVSAIGSGGDTYYADSVKGRFTISRDNAKNSLYLQMNSLRAEDMAVYYCARGLGYWGQGTLVTVSS VL: not shown | no binding (tested: 50 nM PTK7)
10 | MYT7970 (antibody, V domains shown, IgG) VH: EVQLVQSGGGLVHPGGSLRLSCAGSGFTFSTYLMYWVRQAPGKTLEWVSHIGSGGDTYYADSVKGRFTISRDNAKNSLYLQMNSLRAEDMAVYYCARGLGYWGQGTLVTVSS VL: not shown | no binding (tested: 50 nM PTK7)
11 | MYT7973 (antibody, V domains shown, IgG) VH: EVQLVQSGGGLVHPGGSLRLSCAGSGFTFSTYLMYWVRQAPGKTLEWVSAIGHGGDTYYADSVKGRFTISRDNAKNSLYLQMNSLRAEDMAVYYCARGLGYWGQGTLVTVSS VL: not shown | no binding (tested: 50 nM PTK7)
